Test results from publication doi:10.1101/151191 (bioRxiv, 2017).

Experiments:
[1] = biological target: the molecule itself; experiment: AUC
[2] = biological target: the molecule itself; experiment: SEC

B1: α-mDelNT (N-terminal half of mouse α-Delphilin) (domain or fragment, UniProt Q0QWG9-2 1-558, looked up)
chain: MSCLGIFIPKKHRARFDEVVSQGLLGKLCRARRAQGAQRLRRSRSEERPERLLVSTRASAAPRRPDEPPPRKATSLLGGRTGPGGPRRTVRVYKGNKSFGFTLRGHGPVWIESVLPGSPAENASLKSGDRILFLNGLDMRNCSHDKVVSMLQGSGAMPTLVVEEGPVPFASDSDSLDSPTRASALTSLQWVADILPSSIRVQGRTFSQQLDHLLTPPERYGVCRALERFFQHRNIDTLIVDVYPVLDTPAKQVLWQFLYQLLTYEEQELCQEKIACFLGYTAMTEPESSLDLEPESTPEPTPEPQPRSSLRASSMCRRSLRSQGLETSLSCGPGDCPEMPLPLIPGERQAGDGTSLPETPNPKMMSAVYAELESRLNSSFKGKIGTMSKSRASPPVPSLVGTSGPRTLSGVSWPSDRLLPSPCYDPLCSGGLASPSSSESHPYASLDSSRAPSPQPGLGSIHADSPPSPDPIRPPSRRKLFAFSRPVRSRDTDRFLDALSEQLGPRLSIVDDFLTPENDYEEMSFHDDQGSFVTNERSSASECVSSSEEGSSLTYSSI
[1]
  stoichiometry N: 6 subunits
[2]
  stoichiometry N: 7 subunits
